Test results reported in the supplement of paper PMC11246515.
± gives the standard deviation of the averaged measurements.

Assay: total protein half-life in vivo (active degradation + dilution); higher = more stable protein
[1] = E. coli NCM3722 delta-clpP delta-lon delta-hslV, growth: N-lim chemostat, doubling time 6 h
[2] = E. coli NCM3722 delta-clpP, growth: N-lim chemostat, doubling time 6 h
[3] = E. coli NCM3722 delta-hslV, growth: N-lim chemostat, doubling time 6 h
[4] = E. coli NCM3722 delta-lon, growth: N-lim chemostat, doubling time 6 h
[5] = E. coli NCM3722 delta-smpB, growth: N-lim chemostat, doubling time 6 h
[6] = wild type E. coli NCM3722, growth: C-lim chemostat, doubling time 3 h
[7] = wild type E. coli NCM3722, growth: C-lim chemostat, doubling time 6 h
[8] = wild type E. coli NCM3722, growth: C-lim chemostat, doubling time 12 h
[9] = wild type E. coli NCM3722, growth: N-lim chemostat, doubling time 6 h
[10] = wild type E. coli NCM3722, growth: N-lim chemostat, doubling time 12 h
[11] = wild type E. coli NCM3722, growth: P-lim chemostat, doubling time 6 h
[12] = wild type E. coli NCM3722, growth: P-lim chemostat, doubling time 12 h

## MRNPTLLQCFHWYYPEGGKLWPELAERADGFNDIGINMVWLPPAYKGASGGYSVGYDSYDLFDLGEFDQKGSIPTKYGDKAQLLAAIDALKRNDIAVLLDVVVNHKMGADEKEAIRVQRVNADDRTQIDEEIIECEGWTRYTFPARAGQYSQFIWDFKCFSGIDHIENPDEDGIFKIVNDYTGEGWNDQVDDELGNFDYLMGENIDFRNHAVTEEIKYWARWVMEQTQCDGFRLDAVKHIPAWFYKEWIEHVQEVAPKPLFIVAEYWSHEVDKLQTYIDQVEGKTMLFDAPLQMKFHEASRMGRDYDMTQIFTGTLVEADPFHAVTLVANHDTQPLQALEAPVEPWFKPLAYALILLRENGVPSVFYPDLYGAHYEDVGGDGQTYPIDMPIIEQLDELILARQRFAHGVQTLFFDHPNCIAFSRSGTDEFPGCVVVMSNGDDGEKTIHLGENYGNKTWRDFLGNRQERVVTDENGEATFFCNGGSVSVWVIEEVI
[1]
  total protein half-life in vivo: 5.23 ± 0.094 h
[2]
  total protein half-life in vivo: 4.16 ± 0.08 h
[3]
  total protein half-life in vivo: 4.036 ± 0.019 h
[4]
  total protein half-life in vivo: 4.4 ± 0.36 h
[5]
  total protein half-life in vivo: 4.26 ± 0.12 h
[6]
  total protein half-life in vivo: 3.21 ± 0.87 h
[7]
  total protein half-life in vivo: 6.29 ± 0.87 h
[8]
  total protein half-life in vivo: 12.4 ± 0.27 h
[9]
  total protein half-life in vivo: 4.2 ± 0.082 h
[10]
  total protein half-life in vivo: 6.75 ± 0.24 h
[11]
  total protein half-life in vivo: 5.54 ± 0.59 h
[12]
  total protein half-life in vivo: 13.4 ± 0.48 h

## MRPAGRSNNQVRPVTLTRNYTKHAEGSVLVEFGDTKVLCTASIEEGVPRFLKGQGQGWITAEYGMLPRSTHTRNAREAAKGKQGGRTMEIQRLIARALRAAVDLKALGEFTITLDCDVLQADGGTRTASITGACVALVDALQKLVENGKLKTNPMKGMVAAVSVGIVNGEAVCDLEYVEDSAAETDMNVVMTEDGRIIEVQGTAEGEPFTHEELLILLALARGESNPL [P0CG19]
[1]
  total protein half-life in vivo: 5.037 ± 0.026 h
[2]
  total protein half-life in vivo: 4.44 ± 0.39 h
[3]
  total protein half-life in vivo: > 8 h
[4]
  total protein half-life in vivo: 4.79 ± 0.48 h
[5]
  total protein half-life in vivo: 4.48 ± 0.11 h
[8]
  total protein half-life in vivo: 11.7 ± 3.8 h
[9]
  total protein half-life in vivo: 3.47 ± 0.77 h
[10]
  total protein half-life in vivo: 6.88 ± 0.082 h
[11]
  total protein half-life in vivo: 5.58 ± 0.93 h

## MRRANDPQRREKIIQATLEAVKLYGIHAVTHRKIATLAGVPLGSMTYYFSGIDELLLEAFSSFTEIMSRQYQAFFSDVSDAPGACQAITDMIYSSQVATPDNMELMYQLYALASRKPLLKTVMQNWMQRSQQTLEQWFEPGTARALDAFIEGMTLHFVTDRKPLSREEILRMVERVAG
[1]
  total protein half-life in vivo: 5.17 ± 0.91 h
[2]
  total protein half-life in vivo: 4.84 h
[3]
  total protein half-life in vivo: 4.98 ± 0.17 h
[5]
  total protein half-life in vivo: 4.87 ± 0.94 h
[6]
  total protein half-life in vivo: 2.46 ± 0.18 h
[7]
  total protein half-life in vivo: 4.6 h
[8]
  total protein half-life in vivo: 5.18 h
[9]
  total protein half-life in vivo: 5.11 h
[10]
  total protein half-life in vivo: 8.57 h
[11]
  total protein half-life in vivo: 4.06 h
[12]
  total protein half-life in vivo: 6.17 ± 0.89 h

## MRRELAIEFSRVTESAALAGYKWLGRGDKNTADGAAVNAMRIMLNQVNIDGTIVIGEGEIDEAPMLYIGEKVGTGRGDAVDIAVDPIEGTRMTAMGQANALAVLAVGDKGCFLNAPDMYMEKLIVGPGAKGTIDLNLPLADNLRNVAAALGKPLSELTVTILAKPRHDAVIAEMQQLGVRVFAIPDGDVAASILTCMPDSEVDVLYGIGGAPEGVVSAAVIRALDGDMNGRLLARHDVKGDNEENRRIGEQELARCKAMGIEAGKVLRLGDMARSDNVIFSATGITKGDLLEGISRKGNIATTETLLIRGKSRTIRRIQSIHYLDRKDPEMQVHIL [P0A9C9]
[2]
  total protein half-life in vivo: 4.69 ± 0.43 h
[3]
  total protein half-life in vivo: 4.84 ± 0.68 h
[4]
  total protein half-life in vivo: 4.309 ± 0.04 h
[5]
  total protein half-life in vivo: 4.27 ± 0.27 h
[6]
  total protein half-life in vivo: 3.593 ± 0.019 h
[7]
  total protein half-life in vivo: 5.39 ± 0.19 h
[8]
  total protein half-life in vivo: 9.84 ± 0.62 h
[9]
  total protein half-life in vivo: 4.51 ± 0.52 h
[10]
  total protein half-life in vivo: 7.05 ± 0.25 h
[11]
  total protein half-life in vivo: 5.75 ± 0.21 h
[12]
  total protein half-life in vivo: 12 ± 1.2 h

## MRRILSVLLENESGALSRVIGLFSQRGYNIESLTVAPTDDPTLSRMTIQTVGDEKVLEQIEKQLHKLVDVLRVSELGQGAHVEREIMLVKIQASGYGRDEVKRNTEIFRGQIIDVTPSLYTVQLAGTSGKLDAFLASIRDVAKIVEVARSGVVGLSRGDKIMR
[1]
  total protein half-life in vivo: 5.652 ± 0.022 h
[2]
  total protein half-life in vivo: 6.01 ± 0.31 h
[3]
  total protein half-life in vivo: 5.93 ± 0.45 h
[4]
  total protein half-life in vivo: 5.9 ± 0.55 h
[5]
  total protein half-life in vivo: 5.37 ± 0.21 h
[6]
  total protein half-life in vivo: 3.07 ± 0.047 h
[7]
  total protein half-life in vivo: 5.93 ± 0.13 h
[8]
  total protein half-life in vivo: 10.5 ± 0.55 h
[9]
  total protein half-life in vivo: 5.72 ± 0.27 h
[10]
  total protein half-life in vivo: 9.51 ± 0.46 h
[11]
  total protein half-life in vivo: 5.98 ± 0.1 h
[12]
  total protein half-life in vivo: 12.4 ± 0.78 h

## MRRLPGILLLTGAALVVIAALLVSGLRIALPHLDAWRPEILNKIESATGMPVEASQLSASWQNFGPTLEAHDIRAELKDGGEFSVKRVTLALDVWQSLLHMRWQFRDLTFWQLRFRTNTPITSGGSDDSLEASHISDLFLRQFDHFDLRDSEVSFLTPSGQRAELAIPQLTWLNDPRRHRAEGLVSLSSLTGQHGVMQVRMDLRDDEGLLSNGRVWLQADDIDLKPWLGKWMQDNIALETAQFSLEGWMTIDKGDVTGGDVWLKQGGASWLGEKQTHTLSVDNLTAHITRENPGWQFSIPDTRITMDGKPWPSGALTLAWIPEQDVGGKDNKRSDELRIRASNLELAGLEGIRPLAAKLSPALGDVWRSTQPSGKINTLALDIPLQAADKTRFQASWSDLAWKQWKLLPGAEHFSGTLSGSVENGLLTASMKQAKMPYETVFRAPLEIADGQATISWLNNNKGFQLDGRNIDVKAKAVHARGGFRYLQPANDEPWLGILAGISTDDGSQAWRYFPENLMGKDLVDYLSGAIQGGEADNATLVYGGNPQLFPYKHNEGQFEVLVPLRNAKFAFQPDWPALTNLDIELDFINDGLWMKTDGVNLGGVRASNLTAVIPDYSKEKLLIDADIKGPGKAVGPYFDETPLKDSLGATLQELQLDGDVNARLHLDIPLNGELVTAKGEVTLRNNSLFIKPLDSTLKNLSGKFSFINSDLQSEPLTASWFNQPLNVDFSTKEGAKAYQVAVNLNGNWQPAKTGVLPEAVNEALSGSVAWDGKVGIDLPYHAGATYNIELNGDLKNVSSHLPSPLAKPAGEPLAVNVKVDGNLNSFELTGQAGADNHFNSRWLLGQKLTLDRAIWAADSKTLPPLPEQSGVELNMPPMNGAEWLALFQKGAAESVGGAASFPQHITLRTPMLSLGNQQWNNLSIVSQPTANGTLVEAQGREINATLAMRNNAPWLANIKYLYYNPSVAKTRGDSTPSSPFPTTERINFRGWPDAQIRCTECWFWGQKFGRIDSDITISGDTLTLTNGLIDTGFSRLTADGEWVNNPGNERTSLKGKLRGQKIDAAAEFFGVTTPIRQSSFNVDYDLHWRKAPWQPDEATLNGIIHTQLGKGEITEINTGHAGQLLRLLSVDALMRKLRFDFRDTFGEGFYFDSIRSTAWIKDGVMHTDDTLVDGLEADIAMKGSVNLVRRDLNMEAVVAPEISATVGVAAAFAVNPIVGAAVFAASKVLGPLWSKVSILRYHISGPLDDPQINEVLRQPRKEKAQ
[1]
  total protein half-life in vivo: 6.25 ± 0.48 h
[2]
  total protein half-life in vivo: 6.38 ± 0.3 h
[3]
  total protein half-life in vivo: 6.18 ± 0.12 h
[4]
  total protein half-life in vivo: 6.21 ± 0.18 h
[5]
  total protein half-life in vivo: 5.844 ± 0.013 h
[6]
  total protein half-life in vivo: 3.185 ± 0.015 h
[7]
  total protein half-life in vivo: 6.62 ± 0.46 h
[8]
  total protein half-life in vivo: 12.6 ± 0.73 h
[9]
  total protein half-life in vivo: 6.11 ± 0.16 h
[10]
  total protein half-life in vivo: 12.2 ± 1.2 h
[11]
  total protein half-life in vivo: 5.67 ± 0.26 h
[12]
  total protein half-life in vivo: 9.67 ± 1.6 h
